Assay results taken from the supplement of paper PMC11780869.

System: Bacillus subtilis
Assay: cleaved RNA product abundance (RNA/gDNA barcode ratio) relative to median wild-type variant (ratio to wild type); higher = more accumulation of the downstream cleavage product
Settings: cleavage site: cggR-gapA (positions -7 to +36 mutated)
Procedure, shortened: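 B. subtilis strains with chromosomally integrated reporter mRNAs (truncated aprE or tetM) holding barcoded, mutagenized RNase Y cleavage-site windows grew in LB at 37°C from OD600 0.0003 to 0.3. Cleaved product abundance is each construct's RNA:gDNA barcode ratio, scaled to the median construct with the unmutated site. It came from sequencing barcodes of gel-selected, reverse-transcribed cleaved RNA and of genomic DNA.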

[1] = experiment (reporter, strain, medium): exp 2b: truncated aprE reporter, strain BJT200
[2] = experiment (reporter, strain, medium): exp 4a: truncated aprE reporter, strain BJT201 with 2% xylose (RNase J1 expressed)

Row | Sequence | cleaved RNA product abundance [1] | cleaved RNA product abundance [2] | cleaved RNA product abundance (experiment (reporter, strain, medium): exp 6: tetM reporter, strain 168)
1 | ACAGACGAAGGAGCCGCAAAGAAGTTATTAAGGTATAAATAATCCCTCAATATAAATATCTCTCACTTATTTAAA | 0.0876 | 0.112 | –
2 | ACAGACGAAGGAGCCGCAAAGAAGTTATTAAGGTATAAATAATCCCTCAATATAAATGTCTCTCACTTATTTAAA | – | 0.11 | –
3 | ACAGACGAAGGAGCCGCAAAGAAGTTATTAAGGTATCAATAATCCCTCAATATAAATATCTCTCACTTATTTAAA | 0.106 | 0.125 | –
4 | ACAGACGAAGGAGCCGCAAAGAAGTTATTAAGGTATGAAAAATCCCTCAATATAAATATCTCTCACTTATTTAAA | 0.0949 | 0.145 | –
5 | ACAGACGAAGGAGCCGCAAAGAAGTTATTAAGGTATGAATAAACCCTCAATATAAATATCTCTCACTTATTTAAA | 0.0972 | 0.124 | –
6 | ACAGACGAAGGAGCCGCAAAGAAGTTATTAAGGTATGAATAACCCCTCAATATAAATATCTCTCACTTATTTAAA | 0.0833 | 0.0618 | –
7 | ACAGACGAAGGAGCCGCAAAGAAGTTATTAAGGTATGAATAAGCCCTCAATATAAATATCTCTCACTTATTTAAA | – | 0.13 | –
8 | ACAGACGAAGGAGCCGCAAAGAAGTTATTAAGGTATGAATAATACCTCAATATAAATATCTCTCACTTATTTAAA | 1 | 1.16 | –
9 | ACAGACGAAGGAGCCGCAAAGAAGTTATTAAGGTATGAATAATCACTCAATATAAATATCTCTCACTTATTTAAA | – | 0.142 | –
10 | ACAGACGAAGGAGCCGCAAAGAAGTTATTAAGGTATGAATAATCCATCAATATAAATATCTCTCACTTATTTAAA | 0.125 | 0.145 | –
11 | ACAGACGAAGGAGCCGCAAAGAAGTTATTAAGGTATGAATAATCCCACAATATAAATATCTCTCACTTATTTAAA | 0.0792 | 0.0978 | –
12 | ACAGACGAAGGAGCCGCAAAGAAGTTATTAAGGTATGAATAATCCCCCAATATAAATATCTCTCACTTATTTAAA | – | 0.141 | –
13 | ACAGACGAAGGAGCCGCAAAGAAGTTATTAAGGTATGAATAATCCCGCAATATAAATATCTCTCACTTATTTAAA | – | 0.0533 | –
14 | ACAGACGAAGGAGCCGCAAAGAAGTTATTAAGGTATGAATAATCCCTAAATATAAATATCTCTCACTTATTTAAA | 0.109 | 0.168 | –
15 | ACAGACGAAGGAGCCGCAAAGAAGTTATTAAGGTATGAATAATCCCTCAAAATAAATATCTCTCACTTATTTAAA | 0.108 | 0.115 | –
16 | ACAGACGAAGGAGCCGCAAAGAAGTTATTAAGGTATGAATAATCCCTCAACATAAATATCTCTCACTTATTTAAA | – | 0.11 | –
17 | ACAGACGAAGGAGCCGCAAAGAAGTTATTAAGGTATGAATAATCCCTCAAGATAAATATCTCTCACTTATTTAAA | 0.111 | 0.151 | –
18 | ACAGACGAAGGAGCCGCAAAGAAGTTATTAAGGTATGAATAATCCCTCAATAAAAATATCTCTCACTTATTTAAA | 0.119 | 0.0613 | –
19 | ACAGACGAAGGAGCCGCAAAGAAGTTATTAAGGTATGAATAATCCCTCAATACAAATATCTCTCACTTATTTAAA | 0.0986 | – | –
20 | ACAGACGAAGGAGCCGCAAAGAAGTTATTAAGGTATGAATAATCCCTCAATAGAAATATCTCTCACTTATTTAAA | – | 0.0725 | –
21 | ACAGACGAAGGAGCCGCAAAGAAGTTATTAAGGTATGAATAATCCCTCAATATAAAAATCTCTCACTTATTTAAA | 0.107 | 0.153 | –
22 | ACAGACGAAGGAGCCGCAAAGAAGTTATTAAGGTATGAATAATCCCTCAATATAAACATCTCTCACTTATTTAAA | – | 0.124 | –
23 | ACAGACGAAGGAGCCGCAAAGAAGTTATTAAGGTATGAATAATCCCTCAATATAAATATCTCTCACTTATTTAAA | 0.107 | 0.142 | 0.127
24 | ACAGACGAAGGAGCCGCAAAGAAGTTATTAAGGTATGAATAATCCCTCAATATAAATATTTCTCACTTATTTAAA | – | 0.121 | –
25 | ACAGACGAAGGAGCCGCAAAGAAGTTATTAAGGTATGAATAATCCCTCAATATAAATCTCTCTCACTTATTTAAA | 0.0874 | – | –
26 | ACAGACGAAGGAGCCGCAAAGAAGTTATTAAGGTATGAATAATCCCTCAATATAAATGTCTCTCACTTATTTAAA | – | 0.107 | –
27 | ACAGACGAAGGAGCCGCAAAGAAGTTATTAAGGTATGAATAATCCCTCAATATAAATTTCTCTCACTTATTTAAA | – | 0.17 | –
28 | ACAGACGAAGGAGCCGCAAAGAAGTTATTAAGGTATGAATAATCCCTCAATATAACTATCTCTCACTTATTTAAA | – | 0.102 | –
29 | ACAGACGAAGGAGCCGCAAAGAAGTTATTAAGGTATGAATAATCCCTCAATATAATTATCTCTCACTTATTTAAA | – | 0.0923 | –
